Here are results for four molecules from article PMC12098916, “Modelling POLG mutations in mice unravels a critical role of POLγΒ in regulating phenotypic severity”.

Data set [1] addresses mouse DNA polymerase γ catalytic subunit, Y933C variant (mPolγA^Y933C) (mouse) (UniProt P54099). Kind of data set: thermal shift assay (thermofluor, SYPRO Orange); 0.5 µM PolγA with or without 0.75 µM PolγB (1:1.5), mixed on ice for 5 min; 20 mM Tris pH 8, 1 mM DTT, final NaCl 175 ± 50 mM; 4 to 95 °C in steps of 0.5 °C.
Data set [2] concerns the target mouse DNA polymerase γ catalytic subunit, wild type (mPolγA^WT) (mouse) (UniProt P54099). The description is as above.
Data set [3] addresses T1, mouse PolγA (mPolγA WT);mouse PolγB (mPolγB) (Mus musculus;Mus musculus, UniProt P54099;Q9QZM2 26-1218;1-459, |). Kind of data set: cryo-EM; R (replication) conformer; 10 mM Ca2+, 0.2 mM dCTP; EMSA: 25 mM Tris-HCl pH 8.0, ~30 mM NaCl, 1 mM TCEP, 0.1 mg/ml BSA, 10% glycerol, 10 uM ddCTP, 0.5 nM DNA, 6.6 nM POLγB dimer, ice 10 min then room temperature. As to conditions: protein: recombinant;recombinant; tags: 6xHis;6xHis; copies: 1;2; 15 nt 5' overhang on strand 1; single mismatch at primer 3' end.

In data set [4] the target is mouse PolγA (mPolγA WT);human POLγB (hPOLγB) (Mus musculus;Homo sapiens, UniProt P54099;Q9UHN1 26-1218;26-485, |). The data set can be described thus: cryo-EM; chimera mAhB, human-like E conformer; 10 mM Ca2+, 0.2 mM dCTP; EMSA: 25 mM Tris-HCl pH 8.0, ~30 mM NaCl, 1 mM TCEP, 0.1 mg/ml BSA, 10% glycerol, 10 uM ddCTP, 0.5 nM DNA, 6.6 nM POLγB dimer, ice 10 min then room temperature. As to conditions: protein: recombinant;recombinant; tags: 6xHis;6xHis; copies: 1;2; 15 nt 5' overhang on strand 1; single mismatch at primer 3' end. For orientation: Mobility shift assays separate free from complexed probe on a gel.

The target in data set [5] is human POLγA (hPOLγA WT);human POLγB (hPOLγB) (Homo sapiens;Homo sapiens, UniProt P54098;Q9UHN1 26-1239;26-485, |). The data set can be described thus: EMSA; 10 uM ddCTP; value in Supp Fig 13f not in material; EMSA: 25 mM Tris-HCl pH 8.0, ~30 mM NaCl, 1 mM TCEP, 0.1 mg/ml BSA, 10% glycerol, 10 uM ddCTP, 0.5 nM DNA, 6.6 nM POLγB dimer, ice 10 min then room temperature. As to conditions: protein: recombinant;recombinant; tags: 6xHis;6xHis; copies: 1;2; label: 32P 5' on 21-mer; 21 bp, 15 nt 5' overhang on strand 1.

Data set [6] has as its target T1, mouse PolγA (mPolγA WT);mouse PolγB …. Kind of data set: EMSA; 10 uM ddCTP; value in Supp Fig 13f not in material; marginally weaker than human; EMSA: 25 mM Tris-HCl pH 8.0, ~30 mM NaCl, 1 mM TCEP, 0.1 mg/ml BSA, 10% glycerol, 10 uM ddCTP, 0.5 nM DNA, 6.6 nM POLγB dimer, ice 10 min then room temperature. To be noted: protein: recombinant;recombinant; tags: 6xHis;6xHis; copies: 1;2; label: 32P 5' on 21-mer; 21 bp, 15 nt 5' overhang on strand 1.

T1 sequence (P54099 26-1218, chain 1 of 2): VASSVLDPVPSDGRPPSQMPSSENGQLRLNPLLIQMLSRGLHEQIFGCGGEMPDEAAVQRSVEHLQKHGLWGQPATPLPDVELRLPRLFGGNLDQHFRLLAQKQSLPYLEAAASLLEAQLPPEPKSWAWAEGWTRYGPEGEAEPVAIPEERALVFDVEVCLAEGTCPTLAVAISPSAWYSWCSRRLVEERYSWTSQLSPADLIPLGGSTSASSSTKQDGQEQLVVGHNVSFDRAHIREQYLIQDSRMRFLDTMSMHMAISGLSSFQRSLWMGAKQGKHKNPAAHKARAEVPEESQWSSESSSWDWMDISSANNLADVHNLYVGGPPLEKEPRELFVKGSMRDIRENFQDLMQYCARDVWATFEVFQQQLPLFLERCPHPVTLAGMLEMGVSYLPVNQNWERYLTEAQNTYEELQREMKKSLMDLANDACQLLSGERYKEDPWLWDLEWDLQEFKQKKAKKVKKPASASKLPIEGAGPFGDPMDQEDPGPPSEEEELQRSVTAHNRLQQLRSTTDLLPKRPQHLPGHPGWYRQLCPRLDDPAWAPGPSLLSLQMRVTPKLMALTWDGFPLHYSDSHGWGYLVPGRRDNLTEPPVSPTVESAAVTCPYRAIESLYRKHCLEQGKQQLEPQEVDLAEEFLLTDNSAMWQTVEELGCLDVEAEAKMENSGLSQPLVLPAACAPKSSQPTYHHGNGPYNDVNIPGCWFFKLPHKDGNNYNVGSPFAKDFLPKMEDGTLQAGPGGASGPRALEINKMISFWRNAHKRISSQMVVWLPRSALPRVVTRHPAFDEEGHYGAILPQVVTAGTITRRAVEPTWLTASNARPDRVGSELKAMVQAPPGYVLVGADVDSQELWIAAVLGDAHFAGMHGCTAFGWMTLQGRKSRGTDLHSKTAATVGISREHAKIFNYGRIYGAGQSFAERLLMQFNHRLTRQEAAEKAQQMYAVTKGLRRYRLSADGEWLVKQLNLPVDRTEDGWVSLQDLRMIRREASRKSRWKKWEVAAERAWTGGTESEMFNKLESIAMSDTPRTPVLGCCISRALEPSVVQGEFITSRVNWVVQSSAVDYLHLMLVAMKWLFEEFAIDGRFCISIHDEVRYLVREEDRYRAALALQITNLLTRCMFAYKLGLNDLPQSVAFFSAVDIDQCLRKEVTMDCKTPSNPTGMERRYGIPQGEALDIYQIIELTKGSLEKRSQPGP
T1 sequence (Q9QZM2 whole entry, chain 2 of 2): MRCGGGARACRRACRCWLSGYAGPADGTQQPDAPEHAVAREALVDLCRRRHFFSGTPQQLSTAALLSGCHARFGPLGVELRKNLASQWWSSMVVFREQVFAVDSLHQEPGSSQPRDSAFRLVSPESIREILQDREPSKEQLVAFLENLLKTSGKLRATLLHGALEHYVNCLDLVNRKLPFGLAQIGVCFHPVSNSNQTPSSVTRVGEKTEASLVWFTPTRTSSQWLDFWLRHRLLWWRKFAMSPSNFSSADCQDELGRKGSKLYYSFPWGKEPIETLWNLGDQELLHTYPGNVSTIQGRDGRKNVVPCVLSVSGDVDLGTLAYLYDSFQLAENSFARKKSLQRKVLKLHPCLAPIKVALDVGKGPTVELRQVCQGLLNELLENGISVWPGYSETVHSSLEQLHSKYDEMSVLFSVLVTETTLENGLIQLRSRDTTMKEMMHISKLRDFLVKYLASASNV
Sequence of human POLγA (hPOLγA WT);human POLγB (hPOLγB) (P54098 26-1239, chain 1 of 2): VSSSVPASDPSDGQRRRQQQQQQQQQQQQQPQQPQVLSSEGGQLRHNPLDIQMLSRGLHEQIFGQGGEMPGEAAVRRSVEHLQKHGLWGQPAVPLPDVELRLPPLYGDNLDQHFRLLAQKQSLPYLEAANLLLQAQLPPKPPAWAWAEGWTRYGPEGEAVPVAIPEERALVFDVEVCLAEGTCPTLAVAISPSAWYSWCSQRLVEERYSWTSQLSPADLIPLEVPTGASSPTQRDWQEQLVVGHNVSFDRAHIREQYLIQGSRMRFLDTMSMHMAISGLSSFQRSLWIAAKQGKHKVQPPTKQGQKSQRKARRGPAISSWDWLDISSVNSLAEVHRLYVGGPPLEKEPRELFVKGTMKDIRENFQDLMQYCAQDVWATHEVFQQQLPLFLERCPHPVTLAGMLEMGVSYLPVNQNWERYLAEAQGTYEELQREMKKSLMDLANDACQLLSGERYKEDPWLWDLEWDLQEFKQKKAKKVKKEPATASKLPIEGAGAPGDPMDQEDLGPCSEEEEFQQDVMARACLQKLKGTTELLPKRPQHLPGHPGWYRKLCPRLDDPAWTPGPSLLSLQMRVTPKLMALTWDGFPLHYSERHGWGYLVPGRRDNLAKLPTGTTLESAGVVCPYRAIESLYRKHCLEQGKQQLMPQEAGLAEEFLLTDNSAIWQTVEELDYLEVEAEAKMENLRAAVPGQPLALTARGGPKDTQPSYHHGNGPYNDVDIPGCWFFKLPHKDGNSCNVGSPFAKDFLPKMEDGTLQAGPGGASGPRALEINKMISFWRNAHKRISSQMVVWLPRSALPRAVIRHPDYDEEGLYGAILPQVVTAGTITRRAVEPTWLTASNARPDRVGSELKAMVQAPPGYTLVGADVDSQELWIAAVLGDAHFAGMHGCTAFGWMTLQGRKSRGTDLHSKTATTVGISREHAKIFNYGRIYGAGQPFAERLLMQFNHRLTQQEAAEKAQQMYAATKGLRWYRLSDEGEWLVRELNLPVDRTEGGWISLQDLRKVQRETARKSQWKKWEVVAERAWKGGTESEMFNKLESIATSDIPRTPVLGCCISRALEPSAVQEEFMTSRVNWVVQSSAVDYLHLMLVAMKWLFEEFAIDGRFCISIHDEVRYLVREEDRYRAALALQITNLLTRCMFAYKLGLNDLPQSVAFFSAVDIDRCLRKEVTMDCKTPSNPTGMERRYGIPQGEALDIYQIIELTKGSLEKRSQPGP
Sequence of human POLγA (hPOLγA WT);human POLγB (hPOLγB) (Q9UHN1 26-485, chain 2 of 2): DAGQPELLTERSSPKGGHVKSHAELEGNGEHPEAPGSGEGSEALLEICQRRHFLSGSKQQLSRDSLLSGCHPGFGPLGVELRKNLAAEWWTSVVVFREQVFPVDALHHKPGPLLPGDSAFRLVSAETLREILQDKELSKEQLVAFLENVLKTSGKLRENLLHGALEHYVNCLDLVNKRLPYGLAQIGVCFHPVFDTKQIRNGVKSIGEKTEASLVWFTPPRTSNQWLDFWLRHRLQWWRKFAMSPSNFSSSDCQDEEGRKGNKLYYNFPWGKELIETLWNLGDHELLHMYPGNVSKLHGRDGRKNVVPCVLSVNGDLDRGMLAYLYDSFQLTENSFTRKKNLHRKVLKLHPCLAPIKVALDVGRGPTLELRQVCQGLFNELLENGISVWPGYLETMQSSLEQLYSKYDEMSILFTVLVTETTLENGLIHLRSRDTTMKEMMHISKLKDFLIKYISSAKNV
Sequence of mouse DNA polymerase γ catalytic subunit, Y933C variant (mPolγA^Y933C) (mouse) (P54099 whole entry Y934C): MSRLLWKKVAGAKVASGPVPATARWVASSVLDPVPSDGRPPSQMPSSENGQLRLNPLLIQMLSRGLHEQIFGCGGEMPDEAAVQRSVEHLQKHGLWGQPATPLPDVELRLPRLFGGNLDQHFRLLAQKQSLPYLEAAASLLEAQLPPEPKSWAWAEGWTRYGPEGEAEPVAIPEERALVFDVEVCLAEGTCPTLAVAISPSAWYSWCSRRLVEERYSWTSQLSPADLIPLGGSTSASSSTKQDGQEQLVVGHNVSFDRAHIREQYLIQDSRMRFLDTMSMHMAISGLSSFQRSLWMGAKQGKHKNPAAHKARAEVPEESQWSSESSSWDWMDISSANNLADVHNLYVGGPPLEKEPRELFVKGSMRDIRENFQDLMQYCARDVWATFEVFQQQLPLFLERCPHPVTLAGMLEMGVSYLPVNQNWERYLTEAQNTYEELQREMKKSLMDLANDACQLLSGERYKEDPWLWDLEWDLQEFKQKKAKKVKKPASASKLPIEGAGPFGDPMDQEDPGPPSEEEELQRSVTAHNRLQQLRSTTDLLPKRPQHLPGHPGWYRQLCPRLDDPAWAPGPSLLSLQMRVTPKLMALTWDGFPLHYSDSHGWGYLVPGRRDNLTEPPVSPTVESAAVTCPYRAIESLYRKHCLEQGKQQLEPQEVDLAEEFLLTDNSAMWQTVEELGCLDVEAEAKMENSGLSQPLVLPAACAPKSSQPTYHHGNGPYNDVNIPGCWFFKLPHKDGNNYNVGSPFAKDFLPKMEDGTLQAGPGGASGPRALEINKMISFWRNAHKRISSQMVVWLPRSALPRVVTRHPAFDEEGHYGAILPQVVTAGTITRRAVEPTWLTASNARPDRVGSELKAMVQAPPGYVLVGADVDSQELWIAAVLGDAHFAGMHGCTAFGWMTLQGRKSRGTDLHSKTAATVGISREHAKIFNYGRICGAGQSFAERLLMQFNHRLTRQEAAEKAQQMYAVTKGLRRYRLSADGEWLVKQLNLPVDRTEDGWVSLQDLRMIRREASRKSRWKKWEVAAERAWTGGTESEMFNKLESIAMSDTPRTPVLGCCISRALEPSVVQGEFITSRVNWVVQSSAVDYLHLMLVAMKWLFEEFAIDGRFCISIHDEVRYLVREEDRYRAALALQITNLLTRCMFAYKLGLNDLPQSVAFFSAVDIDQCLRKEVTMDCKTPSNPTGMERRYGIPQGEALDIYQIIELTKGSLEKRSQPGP
Sequence of mouse DNA polymerase γ catalytic subunit, wild type (mPolγA^WT) (mouse) (P54099 whole entry): as the sequence (P54099 whole entry Y934C) above, with C934Y counted along it
Sequence of mouse PolγA (mPolγA WT);human POLγB (hPOLγB) (P54099 26-1218, chain 1 of 2): as the sequence (P54099 26-1218, chain 1 of 2) above
Sequence of mouse PolγA (mPolγA WT);human POLγB (hPOLγB) (Q9UHN1 26-485, chain 2 of 2): as the sequence (Q9UHN1 26-485, chain 2 of 2) above

For the molecule “mouse DNA polymerase γ accessory subunit, wild type (mPolγB^WT) (natural protein)”, the increase in Tm of PolγA in complex with PolγB in data set [1] came to 9 °C. “mouse DNA polymerase γ accessory subunit, wild type (mPolγB^WT)”: the increase in Tm of PolγA in complex with PolγB in data set [2] came out at 9 °C.

B1: cryo-EM primer-template 40/25 with 3' mismatch (dsDNA)
DNA 1: TTTTTTTTTTATCCGGGCTCCTCTAGACTCGACCGCATGC
DNA 2: GCATGCGGTCGAGTCTAGAGGAGCT
For the molecule B1, the binding result in data set [3] and in data set [4] was “binds” each time.

B2: EMSA primer-template 36/21 (dsDNA)
DNA 1: TTTTTTTTTTATCCGGGCTCCTCTAGACTCGACCGC
DNA 2: GCGGTCGAGTCTAGAGGAGCC
Turning to B2, the binding result in data set [5] and in data set [6] was “binds” throughout.
